# B1: HST-I: ~26 kDa autocatalytic C-terminal segment of the Hedgehog precursor from Drosophila melanogaster, SEQ ID NO.: 001 (protein)
# chain: GCFTPESTALLESGVRKPLGELSIGDRVLSMTANGQAVYSEVILFMDRNLEQMQNFVQLHTDGGAVLTVTPAHLVSVWQPESQKLTFVFADRIEEKNQVLVRDVETGELRPQRVVKVGSVRSKGVVAPLTREGTIVVNSVAASCYAVINSQSLAHWGLAPMRLLSTLEAWLPAKEQLHSSPKVVSSAQQQNGIHWYANALYKVKDYVLPQSWRHD
# modifications: Drosophila melanogaster
# System: heterologous proteins fused to HST-I
# Test: HST-I catalysed protein conjugation (optical assay to monitor HST-I)
# Type: biochemical, Drosophila melanogaster
# Procedure: Using an optical assay developed to monitor HST-I, heterologous proteins can be covalently modified at their C-terminus by cholesterol with a t1/2 of 10-20 min at pH 7.1, 25 degrees Celsius.
molecule,measurement,setting,value
B1,time for protein conjugation,in the absence of accessory proteins,< 60 min
same,half time of conjugation,"physiological buffer, room temperature",≤ 1 h

# From patent US12077795B2, “Method for biocatalytic protein-oligonucleotide conjugation” (The Research Foundation for The State University of New York, priority 2016, dated 2024)
